Results from publication PMC6498573, “Genomic analyses of aminoacyl tRNA synthetases from human-infecting helminths” (BMC Genomics, 2019).

T1: Onchocerca volvulus prolyl tRNA synthetase (OvPRS) (Onchocerca volvulus, UniProt A0A2K6VID2)
T1 construct: OvPRS construct of 497 amino acids (279–775; 57 kDa), MBP-His tag removed by TEV
T1 sequence (A0A2K6VID2 279-775): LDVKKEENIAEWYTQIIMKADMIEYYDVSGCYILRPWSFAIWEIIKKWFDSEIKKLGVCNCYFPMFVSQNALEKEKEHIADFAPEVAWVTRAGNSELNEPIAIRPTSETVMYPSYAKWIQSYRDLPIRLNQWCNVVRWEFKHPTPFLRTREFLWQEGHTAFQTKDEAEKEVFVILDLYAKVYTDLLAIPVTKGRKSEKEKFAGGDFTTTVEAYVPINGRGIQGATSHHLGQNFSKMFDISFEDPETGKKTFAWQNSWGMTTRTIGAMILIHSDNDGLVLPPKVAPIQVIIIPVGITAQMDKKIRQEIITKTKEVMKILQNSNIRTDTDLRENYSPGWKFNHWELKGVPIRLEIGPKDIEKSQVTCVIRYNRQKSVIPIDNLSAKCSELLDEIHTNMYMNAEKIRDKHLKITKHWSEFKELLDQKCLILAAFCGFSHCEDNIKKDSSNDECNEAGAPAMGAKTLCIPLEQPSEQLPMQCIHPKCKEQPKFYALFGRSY


Legend:
[1] = molecular target: T1, Onchocerca volvulus prolyl tRNA synthetase (OvPRS); assay: malachite green aminoacylation assay with recombinant purified OvPRS ([…] proline, […] ATP, […] enzyme); assay type: biochemical
purified protein [2] = substrate: Nc1ncnc2c1ncn2[C@@H]1O[C@H](COP(=O)(O)OP(=O)(O)OP(=O)(O)O)[C@@H](O)[C@H]1O; assay: purified protein; assay type: biochemical, Onchocerca volvulus
purified protein [3] = substrate: O=C(O)[C@@H]1CCCN1; assay: purified protein; assay type: biochemical, Onchocerca volvulus

Molecule | IC50 [1] [µM] | Km (purified protein [2]) [µM] | Km (purified protein [3]) [µM]
O=C(CC1NCCCC1O)Cn1cnc2cc(Br)c(Cl)cc2c1=O (stereo not drawn) [HF, halofuginone] | ~0.03 |  | 
Onchocerca volvulus prolyl tRNA synthetase (OvPRS) (Onchocerca volvulus) (protein, OvPRS construct of 497 amino acids (279–775; 57 kDa), MBP-His tag removed by TEV) LDVKKEENIAEWYTQIIMKADMIEYYDVSGCYILRPWSFAIWEIIKKWFDSEIKKLGVCNCYFPMFVSQNALEKEKEHIADFAPEVAWVTRAGNSELNEPIAIRPTSETVMYPSYAKWIQSYRDLPIRLNQWCNVVRWEFKHPTPFLRTREFLWQEGHTAFQTKDEAEKEVFVILDLYAKVYTDLLAIPVTKGRKSEKEKFAGGDFTTTVEAYVPINGRGIQGATSHHLGQNFSKMFDISFEDPETGKKTFAWQNSWGMTTRTIGAMILIHSDNDGLVLPPKVAPIQVIIIPVGITAQMDKKIRQEIITKTKEVMKILQNSNIRTDTDLRENYSPGWKFNHWELKGVPIRLEIGPKDIEKSQVTCVIRYNRQKSVIPIDNLSAKCSELLDEIHTNMYMNAEKIRDKHLKITKHWSEFKELLDQKCLILAAFCGFSHCEDNIKKDSSNDECNEAGAPAMGAKTLCIPLEQPSEQLPMQCIHPKCKEQPKFYALFGRSY |  | 18.9 ± 2.2 | 24.17 ± 11
